According to PMC3581772, “Protease-activated alpha-2-macroglobulin can inhibit amyloid formation via two distinct mechanisms” (Febs Letters, 2013):

Target: the molecule itself
Assay: thioflavin T fluorescence of fibril formation; I59T lysozyme 6.8 μM, 0.1 M citrate buffer pH 5.0, 25 μM ThT, 60 °C, with stirring; self-association into fibrils

B1: I59T human lysozyme (natural protein, UniProt P61626 19-148, looked up)
chain: KVFERCELARTLKRLGMDGYRGISLANWMCLAKWESGYNTRATNYNAGDRSTDYGIFQTNSRYWCNDGKTPGAVNACHLSCSALLQDNIADAVACAKRVVRDPQGIRAWVAWRNRCQNRDVRQYVQGCGV
notes: human lysozyme, non-natural variant I59T; monomer 14.7 kDa; also called I59T lysozyme; source: expressed and purified as previously described [16]
Q: Does B1 bind?
A: Result: binds
